According to patent publication US20250011454A1 (published 2025):

Legend:
Assay in all cases: cell-based or functional assay
[1] = biological target: PSMA (UniProt Q04609 44-750, limits assumed)
[2] = biological target: T1, KLK2 (UniProt P20151 25-261, limits assumed)
[3] = biological target: T1, KLK2; remark: listed apart in the source

PSMA, sequence (Q04609 44-750 limits assumed): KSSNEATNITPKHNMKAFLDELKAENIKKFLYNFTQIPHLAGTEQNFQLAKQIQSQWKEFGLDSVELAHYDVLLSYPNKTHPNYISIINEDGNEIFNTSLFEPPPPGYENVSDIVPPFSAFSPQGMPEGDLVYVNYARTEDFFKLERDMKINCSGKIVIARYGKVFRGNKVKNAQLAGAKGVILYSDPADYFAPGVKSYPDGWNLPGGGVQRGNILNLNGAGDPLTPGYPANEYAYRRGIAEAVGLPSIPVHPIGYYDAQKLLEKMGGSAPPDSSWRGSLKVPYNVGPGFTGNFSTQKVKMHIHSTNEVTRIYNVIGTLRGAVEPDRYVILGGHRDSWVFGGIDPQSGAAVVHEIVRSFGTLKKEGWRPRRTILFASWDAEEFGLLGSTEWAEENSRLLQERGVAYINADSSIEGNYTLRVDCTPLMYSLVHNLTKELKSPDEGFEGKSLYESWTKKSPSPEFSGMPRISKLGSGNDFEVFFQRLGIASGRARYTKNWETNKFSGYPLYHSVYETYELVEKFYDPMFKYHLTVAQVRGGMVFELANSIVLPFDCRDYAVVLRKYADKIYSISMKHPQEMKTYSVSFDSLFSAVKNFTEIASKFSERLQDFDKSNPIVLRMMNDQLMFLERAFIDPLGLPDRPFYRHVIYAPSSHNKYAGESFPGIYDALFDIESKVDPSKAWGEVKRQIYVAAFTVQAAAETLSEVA
T1 sequence (P20151 25-261 limits assumed): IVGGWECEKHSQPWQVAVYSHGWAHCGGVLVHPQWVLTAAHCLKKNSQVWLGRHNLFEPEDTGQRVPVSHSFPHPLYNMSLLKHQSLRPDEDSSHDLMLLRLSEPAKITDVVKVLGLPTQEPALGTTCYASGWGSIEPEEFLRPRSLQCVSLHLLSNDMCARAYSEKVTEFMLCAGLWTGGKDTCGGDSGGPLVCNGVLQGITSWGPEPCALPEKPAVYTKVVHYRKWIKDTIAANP

| Binder | In vitro ADCC killing EC50 (M), C42B cells, NK cells, 24 hour [1] | In vitro ADCC killing EC50 (M), C42B cells, PBMC, 6 hour [1] | In vitro ADCC killing EC50 (M), LNCaP cells, NK cells, 24 hour [1] | In vitro ADCC killing EC50 (M), LNCaP cells, PBMC, 6 hour [1] | ADCC activity, cell killing of VCaP cells by PBMC [2] | EC50 (M), ADCC killing of VCaP cells by PBMC at 48 hour [3] |
| --- | --- | --- | --- | --- | --- | --- |
| PSMB952 (antibody, V domains shown) VH: EVQLVESGGGLVQPGGSLRLSCAASGFTFSSYAMSWVRQAPGKGLEWVSAISGGIGSTYYADSVKGRFTISRDNSKNTLWLQMNSLRAEDTAVYYCAKDGVGATPYYFDYWGQGTLVTVSS VL: QSVLTQPPSVSAAPGQKVTISCSGSSSNIGINYVSWYQQLPGTAPKLLIYDNNKRPSGIPDRFSGSKSGTSATLGITGLQTGDEADYYCGTWDSSLSAVVFGGGTKLTVL | 2.45e-11 M | 3.51e-10 M | 4.59e-11 M | 2.01e-10 M | – | – |
| PSMB956 (antibody, V domains shown) VH: EVQLVESGGGLVQPGGSLRLSCAASGFTFSSYAMSWVRQAPGKGLEWVSAISGGSGSTYYADSVKGRFTISRDNSKNTLYLQMNSLRAEDSAVYYCAKDGVGATPYYFDYWGQGTLVTVSS VL: QSVLTQPPSVSAAPGQKVTISCSGSSSNIGINYVSWYQQLPGTAPKLLIYDNNKRPSGIPDRFSGSKSGTSATLGITGLQTGDEADYYCGTWDSSLSAVVFGGGTKLTVL | 9.96e-12 M | 4.23e-10 M | 3.58e-11 M | 1.52e-10 M | – | – |
| KL2B870 (antibody, human IgG1, kappa) heavy: not shown light: DIQMTQSPSFLSASVGDRVTITCRASQGISSYLAWYQQKPGKAPKFLIYAASTLQSGVPSRFSGSGSGTEFTLTISSLQPEDFATYYCQQLNSYPLTFGGGTKVEIKRTVAAPSVFIFPPSDEQLKSGTASVVCLLNNFYPREAKVQWKVDNALQSGNSQESVTEQDSKDSTYSLSSTLTLSKADYEKHKVYACEVTHQGLSSPVTKSFNRGEC | – | – | – | – | ~73% | 1e-09 M |
| KL2B870.CLF (antibody, human IgG1, kappa) heavy: not shown light: DIQMTQSPSFLSASVGDRVTITCRASQGISSYLAWYQQKPGKAPKFLIYAASTLQSGVPSRFSGSGSGTEFTLTISSLQPEDFATYYCQQLNSYPLTFGGGTKVEIKRTVAAPSVFIFPPSDEQLKSGTASVVCLLNNFYPREAKVQWKVDNALQSGNSQESVTEQDSKDSTYSLSSTLTLSKADYEKHKVYACEVTHQGLSSPVTKSFNRGEC | – | – | – | – | ~89% | 3.54e-10 M |
| KL2B872.CLF (antibody, human IgG1, kappa) heavy: not shown light: DIQMTQSPSFLSASVGDRVTITCRASQGISSYLAWYQQKPGKAPKFLIYAASTLQSGVPSRFSGSGSGTEFTLTISSLQPEDFATYYCQQLNSYPLTFGGGTKVEIKRTVAAPSVFIFPPSDEQLKSGTASVVCLLNNFYPREAKVQWKVDNALQSGNSQESVTEQDSKDSTYSLSSTLTLSKADYEKHKVYACEVTHQGLSSPVTKSFNRGEC | – | – | – | – | ~85% | 4.12e-10 M |
